{"source": "patent US20230002478A1", "key": {"[1]": {"molecular_target": "Fc-gamma Receptor 1 (FcγR1) (UniProt P12314)", "sequence (P12314 16-288)": "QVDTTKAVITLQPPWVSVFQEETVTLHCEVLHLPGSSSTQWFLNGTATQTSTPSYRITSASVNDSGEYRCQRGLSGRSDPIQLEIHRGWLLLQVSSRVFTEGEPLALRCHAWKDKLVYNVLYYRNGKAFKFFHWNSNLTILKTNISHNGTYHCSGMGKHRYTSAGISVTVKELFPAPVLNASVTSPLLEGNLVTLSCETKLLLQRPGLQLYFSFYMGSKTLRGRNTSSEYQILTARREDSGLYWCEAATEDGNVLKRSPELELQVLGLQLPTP"}, "[2]": {"molecular_target": "FcγR2a R167 (UniProt P12318)", "sequence (P12318 36-218 H167R)": "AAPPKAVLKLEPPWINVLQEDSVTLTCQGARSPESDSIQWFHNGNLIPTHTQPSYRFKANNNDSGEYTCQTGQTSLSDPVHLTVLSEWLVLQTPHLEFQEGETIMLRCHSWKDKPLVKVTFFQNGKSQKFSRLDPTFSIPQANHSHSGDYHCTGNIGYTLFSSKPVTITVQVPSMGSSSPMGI", "assay": "SPR, steady state fit, second of two runs"}, "[3]": {"molecular_target": "FcγR2a R167 (UniProt P12318)", "assay": "SPR, steady state fit, first of two runs"}, "[4]": {"molecular_target": "FcγR2a R167 (UniProt P12318)", "assay": "SPR, kinetic fit, first of two runs"}, "[5]": {"molecular_target": "FcγR3A 176F (UniProt P08637)", "sequence (P08637 17-208)": "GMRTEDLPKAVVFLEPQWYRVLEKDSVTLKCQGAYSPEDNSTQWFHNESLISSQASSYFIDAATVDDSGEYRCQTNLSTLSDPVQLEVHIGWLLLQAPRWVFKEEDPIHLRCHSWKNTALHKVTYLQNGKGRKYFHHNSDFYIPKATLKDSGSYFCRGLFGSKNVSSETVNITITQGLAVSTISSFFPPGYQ", "assay": "SPR, experimental Rmax / theoretical Rmax"}, "[6]": {"molecular_target": "Fc-gamma Receptor 1 (FcγR1) (UniProt P12314)", "assay": "SPR, experimental Rmax / theoretical Rmax"}, "[7]": {"molecular_target": "FcγR2B/C (UniProt P31994)", "sequence (P31994 46-217)": "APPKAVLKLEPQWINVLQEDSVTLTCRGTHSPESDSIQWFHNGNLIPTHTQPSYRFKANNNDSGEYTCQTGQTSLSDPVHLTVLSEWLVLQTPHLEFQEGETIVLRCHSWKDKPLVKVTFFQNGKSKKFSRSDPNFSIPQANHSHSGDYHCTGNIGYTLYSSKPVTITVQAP", "assay": "SPR, experimental Rmax / theoretical Rmax"}, "[8]": {"molecular_target": "FcγR2a R167 (UniProt P12318)", "assay": "SPR, kinetic fit, second of two runs"}, "[9]": {"molecular_target": "neonatal Fc receptor (FcRn) (Human) (UniProt P55899)", "sequence (P55899 24-297)": "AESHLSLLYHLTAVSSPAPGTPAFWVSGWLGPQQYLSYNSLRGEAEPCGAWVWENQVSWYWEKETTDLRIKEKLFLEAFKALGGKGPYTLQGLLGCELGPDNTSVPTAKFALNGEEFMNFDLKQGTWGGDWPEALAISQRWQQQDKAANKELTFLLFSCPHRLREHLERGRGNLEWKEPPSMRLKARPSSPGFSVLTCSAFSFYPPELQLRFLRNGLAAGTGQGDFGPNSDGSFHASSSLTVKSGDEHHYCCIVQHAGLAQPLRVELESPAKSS", "assay": "SPR at pH 6.0, experimental Rmax / theoretical Rmax"}, "[10]": {"molecular_target": "FcγR3A 176F (UniProt P08637)", "assay": "SPR, steady state fit"}, "[11]": {"molecular_target": "FcγR2a H167 (UniProt P12318)", "sequence (P12318 36-218)": "as the sequence (P12318 36-218 H167R) above, with R132H counted along it", "assay": "SPR, steady state fit"}, "[12]": {"molecular_target": "FcγR3A 176V (UniProt P08637)", "sequence (P08637 17-208 F176V)": "as the sequence (P08637 17-208) above, with F160V counted along it", "assay": "SPR, steady state fit"}, "[13]": {"molecular_target": "FcγR2B/C (UniProt P31994)", "assay": "SPR, steady state fit"}, "[14]": {"molecular_target": "biotinylated SARS-CoV-2 spike RBD (Ancestral) (SARS-CoV-2) (UniProt P0DTC2)", "assay": "AlphaLISA, inhibition of ACE2-muFc / biotinylated spike complex"}, "[15]": {"molecular_target": "neonatal Fc receptor (FcRn) (Human) (UniProt P55899)", "assay": "SPR at pH 6.0, kinetic fit"}, "[16]": {"molecular_target": "FcγR3A 176F (UniProt P08637)", "assay": "SPR, kinetic fit"}, "[17]": {"molecular_target": "FcγR2a H167 (UniProt P12318)", "assay": "SPR, kinetic fit"}, "[18]": {"molecular_target": "FcγR3A 176V (UniProt P08637)", "assay": "SPR, kinetic fit"}, "[19]": {"molecular_target": "FcγR2B/C (UniProt P31994)", "assay": "SPR, kinetic fit"}, "[20]": {"molecular_target": "neonatal Fc receptor (FcRn) (Human) (UniProt P55899)", "assay": "SPR at pH 6.0, steady state fit"}}, "note": "pIC50, pKd: −log10 of the molar value."}
{"substance": "anti-RBD neutralizing monoclonal antibody (human IgG1) from Acro Biosystems (SAD-S35)", "values": [{"measurement": "pKd", "setting": "[1]", "value": 9.34}, {"measurement": "pKd", "setting": "[2]", "value": 6.19}, {"measurement": "pKd", "setting": "[3]", "value": 6.20}, {"measurement": "pKd", "setting": "[4]", "value": 6.22}, {"measurement": "% Activity", "setting": "[5]", "value": 92, "unit": "%"}, {"measurement": "% Activity", "setting": "[6]", "value": 120, "unit": "%"}, {"measurement": "% Activity", "setting": "[7]", "value": 93, "unit": "%"}, {"measurement": "pKd", "setting": "[8]", "value": 6.19}, {"measurement": "% Activity", "setting": "[9]", "value": 116, "unit": "%"}, {"measurement": "pKd", "setting": "[10]", "value": 6.10}, {"measurement": "pKd", "setting": "[11]", "value": 6.27}, {"measurement": "pKd", "setting": "[12]", "value": 6.68}, {"measurement": "pKd", "setting": "[13]", "value": 5.80}, {"measurement": "pIC50", "setting": "[14]", "value": 8.17}, {"measurement": "pKd", "setting": "[15]", "value": 7.09}, {"measurement": "pKd", "setting": "[16]", "value": 5.95}, {"measurement": "pKd", "setting": "[17]", "value": 6.34}, {"measurement": "pKd", "setting": "[18]", "value": 6.79}, {"measurement": "pKd", "setting": "[19]", "value": 5.87}, {"measurement": "pKd", "setting": "[20]", "value": 7.06}]}
